Data: publication PMC11876703, “Structural basis for human NKCC1 inhibition by loop diuretic drugs” (The EMBO Journal, 2025)
Residue numbers refer to the chain shown, from its start. Numbers in names are those of the source. Blank lines part the entries; values can stand above or below the binder they belong to.

Experiments:
[1] = biological target: T1, phospho-activated human NKCC1 (Na+-K+-Cl- cotransporter 1) (human), P55011; assay: cryo-EM structure; purified pNKCC1 in GDN, 20 mM HEPES pH 7.4, with 100 uM bumetanide, 100 uM torsemide (K+-free buffer) or 2 mM furosemide plus 100 uM ATP; homodimer; conditions: remark: other sources report otherwise
T1 chain: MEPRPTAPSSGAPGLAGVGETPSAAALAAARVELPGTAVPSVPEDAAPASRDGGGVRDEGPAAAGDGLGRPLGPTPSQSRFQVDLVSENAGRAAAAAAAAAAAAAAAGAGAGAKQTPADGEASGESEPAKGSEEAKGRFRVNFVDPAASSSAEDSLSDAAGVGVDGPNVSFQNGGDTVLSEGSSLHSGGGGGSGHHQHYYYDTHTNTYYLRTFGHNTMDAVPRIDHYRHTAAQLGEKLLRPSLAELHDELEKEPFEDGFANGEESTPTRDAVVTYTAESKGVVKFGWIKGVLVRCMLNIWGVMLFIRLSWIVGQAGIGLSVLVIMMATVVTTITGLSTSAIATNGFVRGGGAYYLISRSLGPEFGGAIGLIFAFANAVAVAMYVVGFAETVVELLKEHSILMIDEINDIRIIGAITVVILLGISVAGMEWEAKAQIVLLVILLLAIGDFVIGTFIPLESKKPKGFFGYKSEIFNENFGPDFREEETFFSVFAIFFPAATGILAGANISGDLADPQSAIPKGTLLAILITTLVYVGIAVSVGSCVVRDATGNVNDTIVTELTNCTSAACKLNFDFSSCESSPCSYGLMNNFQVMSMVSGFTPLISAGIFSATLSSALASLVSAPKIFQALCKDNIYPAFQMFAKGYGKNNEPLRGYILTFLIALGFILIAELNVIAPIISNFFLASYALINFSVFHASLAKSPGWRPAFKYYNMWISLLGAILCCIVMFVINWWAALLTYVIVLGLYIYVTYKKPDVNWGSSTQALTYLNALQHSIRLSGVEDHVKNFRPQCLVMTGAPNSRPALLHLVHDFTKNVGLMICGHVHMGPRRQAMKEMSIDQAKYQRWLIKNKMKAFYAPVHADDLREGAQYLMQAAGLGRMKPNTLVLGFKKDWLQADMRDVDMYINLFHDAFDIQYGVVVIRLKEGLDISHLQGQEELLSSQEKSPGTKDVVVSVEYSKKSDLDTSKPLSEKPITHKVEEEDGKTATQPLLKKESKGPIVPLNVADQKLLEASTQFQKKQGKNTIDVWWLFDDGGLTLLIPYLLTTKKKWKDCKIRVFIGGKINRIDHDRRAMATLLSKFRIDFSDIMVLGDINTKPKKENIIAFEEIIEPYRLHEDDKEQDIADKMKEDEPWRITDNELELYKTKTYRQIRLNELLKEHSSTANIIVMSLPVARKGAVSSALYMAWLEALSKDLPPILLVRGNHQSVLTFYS

[2] = biological target: the molecule itself; assay: as above

stoichiometry N [1]: 2
B1: phospho-activated human NKCC1 (Na+-K+-Cl- cotransporter 1), P55011 1-1212 (natural protein)
chain: T1 chain
modifications: here or on the partner: phosphothreonine at Thr212, Thr217 and Thr230 (verified by mass spectrometry); Thr203, Thr205 and Thr207 also named as phosphoacceptor sites confirmed by mass spectrometry; phosphothreonine at Thr212, Thr217 and Thr230 (verified by mass spectrometry); Thr203, Thr205 and Thr207 also named as phosphoacceptor sites confirmed by mass spectrometry

B2: phospho-activated human NKCC1 bearing K289N and A492E mutations (natural protein, UniProt P55011 1-1212, looked up)
chain: T1 chain with K289N, A492E
modifications: phosphothreonine at Thr212, Thr217 and Thr230 (verified by mass spectrometry; pT212 and pT217 clearly seen in the map, pT230 tentatively modeled); Thr203, Thr205 and Thr207 also named as phosphoacceptor sites confirmed by mass spectrometry
notes: Used for the furosemide/ATP-Mg2+ co-structure; The tag was used for Strep-Tactin purification and no cleavage step is described; also called pNKCC1; NKCC1 (furosemide co-structure); source: calyculin-A treated; purified (Strep-Tactin resin, Superose 6) in GDN with 100 uM ATP
stoichiometry N [2]: 2
